# Test results: PMC12643800
# How the values were obtained:
# [1] = target: Escherichia coli L-asparaginase II (AsnB) expressed in and secreted from Corynebacterium glutamicum (E. coli K-12) (UniProt P00805); test: SEC; Superdex 200 Increase 10/300 GL on FPLC, 0.5 ml/min, 150 ug protein loaded; molecular mass from a calibration curve with carbonic anhydrase, ovalbumin, conalbumin and aldolase; proteins loaded individually
# [2] = target: commercially available asparaginase Ec-AsnB (MEDAC, Germany) (E. coli) (UniProt P00805); test: as above
Substance,stoichiometry N [1],stoichiometry N [2]
Escherichia coli L-asparaginase II (AsnB) expressed in and secreted from Corynebacterium glutamicum (from UniProt P00805 23-348) (enzyme),4,–
"commercially available asparaginase Ec-AsnB (MEDAC, Germany) (from UniProt P00805 23-348) (enzyme)",–,4
